Source: paper PMC9781609 (Pharmaceutics, 2022)

Columns and labels:
[1] = endogenous peptide; cited from earlier work
Protocol: Neurotensin receptor imaging has emerged as a promising target for imaging and therapy. The endogenous neurotensin peptide has a short half-life in blood (<6 min), limiting its direct radiolabeling and use. Most developments in neurotensin receptor imaging have been focused on increasing serum stability and improving specificity for NTSR1 [1]. Previously, neurotensin receptor binding peptides have been investigated as imaging and therapeutic agents when radiolabeled with technetium-99m, indium-111, gallium-68, copper-64, actinium-225, and leutetium-177 [10, 11, 12, 13]. Specif ...

in vivo = settings: male, athymic nude, mouse, total radioactivity
Protocol: All animal procedures were approved by the University of Alabama at Birmingham IACUC, animal protocol number IACUC-22618. Male athymic nude mice (Charles River, Wilmington, MA, USA) were allowed to acclimate for at least 72 h before any procedures were performed. For tumor implantation, mice were subcutaneously injected with 300,000 HT29 cells 3 weeks before imaging. […] Mice were imaged on a GNEXT microPET/CT (Sophie, Springfield, VA, USA). After the last imaging timepoint, mice were euthanized and organs were taken for biodistribution. Organ weights and radioactive counting were collected on a Hidex gamma counter (Lablogic, Clair-Mel City, FL, USA). Images were processed and SUVs were calculated using VivoQuant software (Invicro, Boston, MA, USA).

In the case of “neurotensin peptide: 13-amino-acid peptide which binds to neurotensin receptors 1–3”, the half-life in blood [1] is given as under 6 min.

With CC(=O)N[C@@H](CCCCNC(=O)CN1CCN(CC(=O)O)CCN(CC(=O)O)CC1)C(=O)N1CCC[C@H]1C(=O)N(C)[C@@H](CCCNC(=N)N)C(=O)N[C@@H](CCCNC(=N)N)C(=O)N1CCC[C@H]1C(=O)N[C@@H](Cc1ccc(O)cc1)C(=O)N[C@H](C(=O)N[C@@H](CC(C)C)C(=O)O)C(C)(C)C [[^55Co] Co-NOTA-NT-20.3] the SUV at 1 h (in vivo; 1 ug, heart SUV) was 0.033 ± 0.002 SUV, the SUV at 4 h (in vivo; 1 ug, heart SUV) was 0.015 ± 0.002 SUV and the SUV at 24 h (in vivo; 1 ug, heart SUV) was 0.004 ± 0.001 SUV.

CC(=O)N[C@@H](CCCCNC(=O)CN1CCN(CC(=O)O)CCN(CC(=O)O)CC1)C(=O)N1CCC[C@H]1C(=O)N(C)[C@@H](CCCNC(=N)N)C(=O)N[C@@H](CCCNC(=N)N)C(=O)N1CCC[C@H]1C(=O)N[C@@H](Cc1ccc(O)cc1)C(=O)N[C@H](C(=O)N[C@@H](CC(C)C)C(=O)O)C(C)(C)C [[^64Cu] Cu-NOTA-NT-20.3, metal not drawn] gave an SUV at 1 h (in vivo; liver SUV) of 0.123 ± 0.029 SUV, an SUV at 4 h (in vivo; liver SUV) of 0.178 ± 0.042 SUV and an SUV at 24 h (in vivo; liver SUV) of 0.168 ± 0.056 SUV.
